# Results taken from doi:10.1101/2024.11.16.623948, “Biochemical principles of miRNA targeting in flies”.
# B1: miR-11 / 7mer-A1 (dsRNA)
# RNA 1: CAUCACAGUCUGAGUUCUUGC
# RNA 2: UGUGAUA
# modifications: guide 5' phosphate
# B2: miR-184 / 6mer-m8 (dsRNA)
# RNA 1: UGGACGGAGAACUGAUAAGGGC
# RNA 2: UCCGUC
# modifications: guide 5' phosphate
# B3: let-7 / 8mer (dsRNA)
# RNA 1: UGAGGUAGUAGGUUGUAUAGU
# RNA 2: CUACCUCA
# modifications: guide 5' phosphate
# B4: let-7 / 8mer-w8 (dsRNA)
# RNA 1: UGAGGUAGUAGGUUGUAUAGU
# RNA 2: UUACCUCA
# modifications: guide 5' phosphate
# B5: let-7 / competitor G:U at g4-g5 (dsRNA)
# RNA 1: UGAGGUAGUAGGUUGUAUAGU
# RNA 2: GAUACUAUACAACCUACUAUUUCAACCU
# modifications: 2'-O-methyl and phosphorothioate at t10-t11
# B6: miR-184 / 7mer-A1 (dsRNA)
# RNA 1: UGGACGGAGAACUGAUAAGGGC
# RNA 2: CCGUCCA
# modifications: guide 5' phosphate
# B7: let-7 / 6mer-m8 (dsRNA)
# RNA 1: UGAGGUAGUAGGUUGUAUAGU
# RNA 2: CUACCU
# modifications: guide 5' phosphate
# B8: miR-184 / 8mer-x4C (dsRNA)
# RNA 1: UGGACGGAGAACUGAUAAGGGC
# RNA 2: UCCGCCCA
# modifications: guide 5' phosphate
# B9: miR-11 / 8mer-b5.6G (dsRNA)
# RNA 1: CAUCACAGUCUGAGUUCUUGC
# RNA 2: CUGGUGAUA
# modifications: guide 5' phosphate
# B10: bantam / 7mer-m8,w2 (dsRNA)
# RNA 1: UGAGAUCAUUUUGAAAGCUGAUU
# RNA 2: UGAUCUU
# modifications: guide 5' phosphate
# B11: let-7 / 6mer-A1 (dsRNA)
# RNA 1: UGAGGUAGUAGGUUGUAUAGU
# RNA 2: ACCUCA
# modifications: guide 5' phosphate
# B12: miR-11 / 8mer-w8 (dsRNA)
# RNA 1: CAUCACAGUCUGAGUUCUUGC
# RNA 2: UUGUGAUA
# modifications: guide 5' phosphate
# B13: let-7 / 7mer-A1 (dsRNA)
# RNA 1: UGAGGUAGUAGGUUGUAUAGU
# RNA 2: UACCUCA
# modifications: guide 5' phosphate
# B14: miR-184 / 8mer-b5.6C (printed b5.6CA) (dsRNA)
# RNA 1: UGGACGGAGAACUGAUAAGGGC
# RNA 2: UCCCGUCCA
# modifications: guide 5' phosphate
# B15: miR-184 / 7mer-m8,w2 (dsRNA)
# RNA 1: UGGACGGAGAACUGAUAAGGGC
# RNA 2: UCCGUCU
# modifications: guide 5' phosphate
# B16: let-7 / 7mer-m8,w2 (dsRNA)
# RNA 1: UGAGGUAGUAGGUUGUAUAGU
# RNA 2: CUACCUU
# modifications: guide 5' phosphate
# B17: let-7 / competitor G:U at g4 (dsRNA)
# RNA 1: UGAGGUAGUAGGUUGUAUAGU
# RNA 2: GAUACUAUACAACCUACUACUUCAACCU
# modifications: 2'-O-methyl and phosphorothioate at t10-t11
# B18: bantam / 6mer-m8 (dsRNA)
# RNA 1: UGAGAUCAUUUUGAAAGCUGAUU
# RNA 2: UGAUCU
# modifications: guide 5' phosphate
# B19: let-7 / 8mer-b5.6A (dsRNA)
# RNA 1: UGAGGUAGUAGGUUGUAUAGU
# RNA 2: CUAACCUCA
# modifications: guide 5' phosphate
# B20: bantam / 8mer (dsRNA)
# RNA 1: UGAGAUCAUUUUGAAAGCUGAUU
# RNA 2: UGAUCUCA
# modifications: guide 5' phosphate
# Legend:
# [1] = biological target: T1, FLAG-Ago1 (Drosophila melanogaster, UniProt A1Z9J5 1-950); assay: RBNS; miR-11 guide; G:U site analysis; RBNS: 20 mM HEPES-KOH pH 7.9, 100 mM KOAc, 3.5 mM Mg(OAc) (magnesium acetate), 0.05% CHAPS, 2 mM DTT, 8% glycerol, BSA, tRNA, 25 C 2 h; filter binding: 25 mM HEPES-KOH pH 7.9, 110 mM KOAc, 3.5 mM magnesium acetate, 2 mM DTT, BSA, tRNA, 8% glycerol, 25 C 2 h; competition: 18 mM HEPES-KOH pH 7.4, 100 mM KOAc, 3 mM magnesium acetate, 5 mM DTT, 0.01% IGEPAL, tRNA, 25 C 1 h; conditions: protein: recombinant; tags: FLAG; g2-g7 + t1A
# T1 sequence (A1Z9J5 entry or part of it): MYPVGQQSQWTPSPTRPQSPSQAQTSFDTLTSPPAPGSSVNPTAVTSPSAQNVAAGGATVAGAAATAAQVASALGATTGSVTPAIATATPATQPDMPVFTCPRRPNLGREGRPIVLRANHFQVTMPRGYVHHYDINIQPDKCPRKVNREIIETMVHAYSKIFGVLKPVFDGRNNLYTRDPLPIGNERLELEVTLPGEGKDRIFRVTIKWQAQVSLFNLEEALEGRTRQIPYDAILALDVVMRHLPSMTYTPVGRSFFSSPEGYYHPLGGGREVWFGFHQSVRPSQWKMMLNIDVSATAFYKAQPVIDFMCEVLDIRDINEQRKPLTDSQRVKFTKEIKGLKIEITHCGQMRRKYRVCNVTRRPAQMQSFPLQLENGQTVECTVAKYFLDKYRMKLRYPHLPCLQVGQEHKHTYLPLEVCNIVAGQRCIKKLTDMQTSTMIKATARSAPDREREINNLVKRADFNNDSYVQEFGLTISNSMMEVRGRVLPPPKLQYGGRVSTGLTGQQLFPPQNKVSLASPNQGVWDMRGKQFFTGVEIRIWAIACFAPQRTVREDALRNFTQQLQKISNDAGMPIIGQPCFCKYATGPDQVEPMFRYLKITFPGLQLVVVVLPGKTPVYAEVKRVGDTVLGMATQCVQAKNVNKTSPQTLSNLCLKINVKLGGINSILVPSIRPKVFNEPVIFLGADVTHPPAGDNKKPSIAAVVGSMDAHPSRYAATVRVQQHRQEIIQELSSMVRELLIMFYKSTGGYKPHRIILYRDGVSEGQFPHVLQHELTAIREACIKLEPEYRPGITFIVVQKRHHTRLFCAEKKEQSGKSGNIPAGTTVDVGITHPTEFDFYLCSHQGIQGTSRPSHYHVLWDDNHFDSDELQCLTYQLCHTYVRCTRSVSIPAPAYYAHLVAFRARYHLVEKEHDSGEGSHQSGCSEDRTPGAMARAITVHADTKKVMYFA
# [2] = biological target: T1, FLAG-Ago1; assay: RBNS; miR-11 guide; bulge site analysis; RBNS: 20 mM HEPES-KOH pH 7.9, 100 mM KOAc, 3.5 mM Mg(OAc) (magnesium acetate), 0.05% CHAPS, 2 mM DTT, 8% glycerol, BSA, tRNA, 25 C 2 h; filter binding: 25 mM HEPES-KOH pH 7.9, 110 mM KOAc, 3.5 mM magnesium acetate, 2 mM DTT, BSA, tRNA, 8% glycerol, 25 C 2 h; competition: 18 mM HEPES-KOH pH 7.4, 100 mM KOAc, 3 mM magnesium acetate, 5 mM DTT, 0.01% IGEPAL, tRNA, 25 C 1 h; conditions: protein: recombinant; tags: FLAG; g2-g7 + t1A
# [3] = biological target: T1, FLAG-Ago1; assay: RBNS; miR-184 guide; RBNS: 20 mM HEPES-KOH pH 7.9, 100 mM KOAc, 3.5 mM Mg(OAc) (magnesium acetate), 0.05% CHAPS, 2 mM DTT, 8% glycerol, BSA, tRNA, 25 C 2 h; filter binding: 25 mM HEPES-KOH pH 7.9, 110 mM KOAc, 3.5 mM magnesium acetate, 2 mM DTT, BSA, tRNA, 8% glycerol, 25 C 2 h; competition: 18 mM HEPES-KOH pH 7.4, 100 mM KOAc, 3 mM magnesium acetate, 5 mM DTT, 0.01% IGEPAL, tRNA, 25 C 1 h; conditions: protein: recombinant, tags: FLAG
# [4] = biological target: T1, FLAG-Ago1; assay: RBNS; let-7 guide; RBNS: 20 mM HEPES-KOH pH 7.9, 100 mM KOAc, 3.5 mM Mg(OAc) (magnesium acetate), 0.05% CHAPS, 2 mM DTT, 8% glycerol, BSA, tRNA, 25 C 2 h; filter binding: 25 mM HEPES-KOH pH 7.9, 110 mM KOAc, 3.5 mM magnesium acetate, 2 mM DTT, BSA, tRNA, 8% glycerol, 25 C 2 h; competition: 18 mM HEPES-KOH pH 7.4, 100 mM KOAc, 3 mM magnesium acetate, 5 mM DTT, 0.01% IGEPAL, tRNA, 25 C 1 h; conditions: protein: recombinant, tags: FLAG
# [5] = biological target: T2, Ago1 (RISC assembled in embryo lysate) (Drosophila melanogaster, UniProt A1Z9J5 1-950); assay: competition; let-7 guide (text: 110-fold); RBNS: 20 mM HEPES-KOH pH 7.9, 100 mM KOAc, 3.5 mM Mg(OAc) (magnesium acetate), 0.05% CHAPS, 2 mM DTT, 8% glycerol, BSA, tRNA, 25 C 2 h; filter binding: 25 mM HEPES-KOH pH 7.9, 110 mM KOAc, 3.5 mM magnesium acetate, 2 mM DTT, BSA, tRNA, 8% glycerol, 25 C 2 h; competition: 18 mM HEPES-KOH pH 7.4, 100 mM KOAc, 3 mM magnesium acetate, 5 mM DTT, 0.01% IGEPAL, tRNA, 25 C 1 h; conditions: protein: native; g2-g21, G:U at g4 and g5
# T2 sequence (A1Z9J5 entry or part of it): as above
# [6] = biological target: T1, FLAG-Ago1; assay: RBNS; miR-11 guide; RBNS: 20 mM HEPES-KOH pH 7.9, 100 mM KOAc, 3.5 mM Mg(OAc) (magnesium acetate), 0.05% CHAPS, 2 mM DTT, 8% glycerol, BSA, tRNA, 25 C 2 h; filter binding: 25 mM HEPES-KOH pH 7.9, 110 mM KOAc, 3.5 mM magnesium acetate, 2 mM DTT, BSA, tRNA, 8% glycerol, 25 C 2 h; competition: 18 mM HEPES-KOH pH 7.4, 100 mM KOAc, 3 mM magnesium acetate, 5 mM DTT, 0.01% IGEPAL, tRNA, 25 C 1 h; conditions: protein: recombinant, tags: FLAG
# [7] = biological target: T1, FLAG-Ago1; assay: RBNS; bantam guide; RBNS: 20 mM HEPES-KOH pH 7.9, 100 mM KOAc, 3.5 mM Mg(OAc) (magnesium acetate), 0.05% CHAPS, 2 mM DTT, 8% glycerol, BSA, tRNA, 25 C 2 h; filter binding: 25 mM HEPES-KOH pH 7.9, 110 mM KOAc, 3.5 mM magnesium acetate, 2 mM DTT, BSA, tRNA, 8% glycerol, 25 C 2 h; competition: 18 mM HEPES-KOH pH 7.4, 100 mM KOAc, 3 mM magnesium acetate, 5 mM DTT, 0.01% IGEPAL, tRNA, 25 C 1 h; conditions: protein: recombinant, tags: FLAG
# [8] = biological target: T2, Ago1 (RISC assembled in embryo lysate); assay: competition; let-7 guide; nearly same affinity as fully complementary; RBNS: 20 mM HEPES-KOH pH 7.9, 100 mM KOAc, 3.5 mM Mg(OAc) (magnesium acetate), 0.05% CHAPS, 2 mM DTT, 8% glycerol, BSA, tRNA, 25 C 2 h; filter binding: 25 mM HEPES-KOH pH 7.9, 110 mM KOAc, 3.5 mM magnesium acetate, 2 mM DTT, BSA, tRNA, 8% glycerol, 25 C 2 h; competition: 18 mM HEPES-KOH pH 7.4, 100 mM KOAc, 3 mM magnesium acetate, 5 mM DTT, 0.01% …; conditions: protein: native; g2-g21, G:U at g4
binder,measurement,setting,value
B1,Kd,[1],0.0812 nM
same,Kd,[2],0.07 nM
B2,Kd,[3]; g3-g8,0.321 nM
B3,Kd,"[4]; guide g2-g8 + t1A, site in 20-nt random RBNS library",0.00173 nM
B4,Kd,[4]; G:U at g8,0.0154 nM
B5,binding signal,[5],120 ± 20 fold Kd vs fully complementary
B6,Kd,[3]; g2-g7 + t1A,0.037 nM
B7,Kd,[4]; g3-g8,0.328 nM
B8,Kd,[3]; mismatch at t4,~0.13 nM
B9,Kd,[6]; nucleation bulge G between t5 and t6,0.107 nM
B10,Kd,[7]; G:U at g2,0.866 nM
B11,Kd,[4]; g2-g6 + t1A,0.092 nM
B12,Kd,[6]; G:U at g8,0.0612 nM
B13,Kd,[4]; g2-g7 + t1A,0.0221 nM
B14,Kd,[3]; nucleation bulge C between t5 and t6,0.038 nM
B15,Kd,[3]; G:U at g2,0.154 nM
B16,Kd,[4]; G:U at g2,0.278 nM
B17,binding result,[8],binds
B18,Kd,[7]; g3-g8,1.01 nM
B19,Kd,[4]; nucleation bulge A between t5 and t6,0.12 nM
B20,Kd,[7]; g2-g8 + t1A,0.0189 nM
